Experimental findings from publication PMC10693965 are described below.

Substrate in the data set: C[N+](C)(C)CCO
The experiment in a line: cells, lysate or membranes. It counts as cell-based, Clonorchis sinensis. The conditions noted are these: ND96 (96 mM Na+), pH 7.4, 22–25°C, sodium-dependent, labelled compound.

B1: CsChT (Clonorchis sinensis) (protein)
chain: MLYIPGLIAIIIFYLLILLVGFWAARKSRSNPAGTTETEDVMLAGRNIGLIVGIFTMTATWVGGGYINGTAENTFRPGQGLVWCQAPIGYAASLVLGGFFFAKRMRSLAFVTMLDPFQNKYGERMCGLLFIPALLGETFWSAAILSALGATLGVIVELDHTTSVIISACIALLYTLFGGLYSVAYTDVVQLFCIFVGLWISLPFALLNKATVPISQTWDRWKGSVEAVDAGIYVDNLLMLTFGGIPWQVYFQRVLSCRTAKQAQILSFVAAIGCLIMALPSVLIGAVGASTDWNMTGYGRAENFTIPDGEAKLVLPLVLRYLCPVWVSFVGLGAVSAAVMSSSDSSVLSAASMFARNVVKPVFWQSATERQIIWVMRASIFGVGALSCLLAICIQSIYGLWYLCSDLIYVILFPQLICVLYVRFSNTYGSLIGYILGLFVRLTSGEALLGLPALFKYPYFYDDPQDFYQRFPCKTFAMLCTLVVTIVVSYFTDLYFRKDSKRLKYDFFHCYKQRASASGSIHIGNRFNRPSIRTAKLPIQVPEVDSENADVDENSNKNSNTLDNNKPLA
One may read the Km as the substrate concentration at which the rate is half of its maximum. As for B1, the Km came out at 8.3 µM.
